From PMC4626869, “Subcellular trafficking of guanylyl cyclase/natriuretic peptide receptor-A with concurrent generation of intracellular cGMP” (Bioscience Reports, 2015)
Where no end group is shown, it is not given here.

Biological target: T1, enhanced GFP-tagged guanylyl cyclase/natriuretic peptide receptor-A (eGFP–NPRA fusion protein) (mouse, UniProt P18293 29-1057)
T1 sequence (looked up): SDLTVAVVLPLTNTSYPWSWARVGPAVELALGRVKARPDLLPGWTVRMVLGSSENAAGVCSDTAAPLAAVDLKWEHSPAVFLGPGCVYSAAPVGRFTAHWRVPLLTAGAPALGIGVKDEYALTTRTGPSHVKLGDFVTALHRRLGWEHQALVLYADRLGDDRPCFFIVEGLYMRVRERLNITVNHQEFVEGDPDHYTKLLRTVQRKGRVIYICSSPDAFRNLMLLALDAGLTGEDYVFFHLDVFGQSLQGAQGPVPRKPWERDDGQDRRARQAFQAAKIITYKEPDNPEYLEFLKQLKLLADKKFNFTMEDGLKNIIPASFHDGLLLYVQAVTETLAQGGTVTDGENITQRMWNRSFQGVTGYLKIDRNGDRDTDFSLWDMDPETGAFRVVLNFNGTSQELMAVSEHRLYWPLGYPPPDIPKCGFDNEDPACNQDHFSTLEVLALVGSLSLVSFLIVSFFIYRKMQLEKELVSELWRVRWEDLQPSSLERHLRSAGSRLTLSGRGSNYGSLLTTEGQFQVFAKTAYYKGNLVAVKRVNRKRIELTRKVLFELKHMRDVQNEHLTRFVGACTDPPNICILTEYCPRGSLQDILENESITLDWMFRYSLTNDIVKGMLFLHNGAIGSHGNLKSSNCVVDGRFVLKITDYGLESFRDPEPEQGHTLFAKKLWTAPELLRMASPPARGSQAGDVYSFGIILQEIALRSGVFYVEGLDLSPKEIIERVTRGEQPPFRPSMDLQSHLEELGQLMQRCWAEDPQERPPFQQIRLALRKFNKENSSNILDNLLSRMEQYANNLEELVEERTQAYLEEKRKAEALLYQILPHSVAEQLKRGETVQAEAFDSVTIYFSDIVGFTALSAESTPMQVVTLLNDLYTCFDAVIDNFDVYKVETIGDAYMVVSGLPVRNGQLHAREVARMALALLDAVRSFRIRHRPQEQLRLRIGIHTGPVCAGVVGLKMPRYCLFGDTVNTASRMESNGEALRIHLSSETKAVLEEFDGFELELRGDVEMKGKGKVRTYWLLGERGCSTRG
Assay: cell-based or functional assay

- cGMP immunofluorescence intensity in intact cells treated with 100 nM ANP (unlabelled) for 1, 5, 10, 15 and 30 min, fold over untreated cells: 27 fold
B1: Atrial natriuretic peptide (ANP), 125I-labelled (ligand, rat, UniProt P01161 123-150, looked up)
peptide: SLRRSSCFGGRIDRIGAQSGLGCNSFRY
modifications: ends and bridges not checked; also: 125I label (residue not given here)
